Laboratory results taken from article PMC5019122.

Molecular target: BG505-10MUT (HIV-1 (isolate BG505))
Assay: SPR

B1: MutHGLL121 (fully mature PGT121 IgH with predicted germline IgL) (antibody, V domains shown)
VH: QMQLQESGPGLVKPSETLSLTCSVSGASISDSYWSWIRRSPGKGLEWIGYVHKSGDTNYSPSLKSRVNLSLDTSKNQVSLSLVAATAADSGKYYCARTLHGRRIYGIVAFNEWFTYFYMDVWGNGTQVTVSS
VL: SYVLTQPPSVSVAPGQTARITCGGNNIGSKSVHWYQQKPGQAPVLVVYDDSDRPSGIPERFSGSNSGNTATLTISRVEAGDEADYYCQVWDSSSDHPWVFGGGTKLTVL
  Kd: 47 µM
